This is an account of results in article PMC7962591 (Cell, 2021).

For this assay, the target named is SARS-CoV-2 (strain Wuhan-Hu-1) spike protein, wild type, full-length expression construct (SARS-CoV-2, Wuhan-Hu-1, UniProt P0DTC2). The experiment in a line: flow cytometry on cells. Background: Flow cytometry measures light scatter and fluorescence of single cells or particles in a stream.

B1: COV2-2676 (human mAb, recombinant IgG1) (antibody, V domains shown)
VH: QVQLVQSGAEVKKPGSSVKVSCKASGGTFSSYAINWVRQAPGQGLEWMGGIIPIFGTANYAQKFQGRVTFTADESTSTAYMEVSSLRSEDTAVYYCARSCGDCYSADLDFWGQGTLVTVSS
VL: EIVLTQSPATLSLSPGERATLSCRASQSISSFLAWYQQKPGQAPRLLIYDASNRATGIPARFSGSGSGTDFTLTISSLEPEDFAVYYCQRRSNWPPFTFGPGTKVDIK
Take B1: the binding result is on record as “binds”.

B2: COV2-2489 (human mAb, recombinant IgG1) (antibody, V domains shown)
VH: QLQLQESGPGLVKPSETLSLTCTVSGGSISSTTYYWGWIRQPPGKGLEWIASIYYSGSTYYNPSLKSRLTVSVDTSKNQFSLKLSSVTAADTAVYYCARQWKWFGEAWYFDLWGRGTLVTVSS
VL: not shown
B2: the binding result was “binds”.
